抗体亲和力 data for one molecule are collected here from patent publication CN113321730A.

The test concerns the target T1, hCLDN18.2 (human) (UniProt P56856).
T1 sequence (looked up): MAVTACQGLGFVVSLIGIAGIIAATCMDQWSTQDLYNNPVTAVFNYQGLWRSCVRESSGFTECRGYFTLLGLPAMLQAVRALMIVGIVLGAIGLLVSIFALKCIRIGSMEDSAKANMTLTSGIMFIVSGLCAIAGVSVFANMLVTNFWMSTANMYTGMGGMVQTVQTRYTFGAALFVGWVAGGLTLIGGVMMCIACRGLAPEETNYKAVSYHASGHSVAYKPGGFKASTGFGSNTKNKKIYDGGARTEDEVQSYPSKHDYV
Kind of test: FACS titration on 18.2-K562 cells (20 to 0.002 μg/mL), Anti-Human IgG FITC, MFI.

B1: 抗体E1(C18-23-3G5-1E1) (antibody, V domains shown)
VH: EVQLQQSGPELVKPGASVKISCQASGYTFTDYYMNWVKQSHVKSLEWIGHINPKNGGTNYNQNFKDKATLTVDKSSSTAYMELRSLTSEDSAVYYCARIYYGNSFVYWGQGTLVTVSA
VL: DIVMTQSPSFLTVTAGEKVTLNCKSSQSLLNSGNQKSYLTWYQQKPGQPPKLLIYWASTRESGVPDRFIGSGSGTDFTLTISSVQAEDLAVYYCQNNYFYPVTFGAGTKLELK
B1 yielded a 抗体亲和力 of 0.696 µg/mL.
